Assay results taken from patent US20250092124A1 (YUNNAN BAIYAO GROUP, published 2025).
Where two headings read alike, the source gives them in different places.

T1: GDF15-HIS (ACROBiosystems, CAT #: GD5-H5149) (human, UniProt Q99988 197-308)
T1 construct: Bought protein; also called GDF15 (ACROBiosystems, GD5-H5149); human GDF15; not shown: His tag
T1 sequence (looked up): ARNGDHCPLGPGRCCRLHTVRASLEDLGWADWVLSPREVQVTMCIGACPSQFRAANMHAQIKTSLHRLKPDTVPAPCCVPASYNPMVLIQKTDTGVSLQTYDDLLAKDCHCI

T2: fusion protein comprising the extracellular region of monkey GDF15 protein and human IgG1-FC (monkey (cyno); human, UniProt G7PWZ3 197-308, limits assumed)
T2 construct: extracellular domain; also called cynoGDF15
T2 sequence (looked up): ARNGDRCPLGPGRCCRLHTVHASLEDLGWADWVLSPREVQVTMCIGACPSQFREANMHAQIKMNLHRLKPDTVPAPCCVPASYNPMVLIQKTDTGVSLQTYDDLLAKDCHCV

T3: GDF15-mFC protein (human; mouse, UniProt Q99988 197-308)
T3 construct: extracellular domain;domain: IgG2a-FC; also called GDF15-mFc fusion protein
T3 sequence (looked up): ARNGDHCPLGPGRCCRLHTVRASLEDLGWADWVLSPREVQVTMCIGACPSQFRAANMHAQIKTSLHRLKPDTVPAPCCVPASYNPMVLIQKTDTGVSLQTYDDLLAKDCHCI

T4: fusion protein comprising the extracellular region of human GDF15 protein and human IgG1-FC (human, UniProt Q99988 197-308, limits assumed)
T4 construct: extracellular domain
T4 sequence (looked up): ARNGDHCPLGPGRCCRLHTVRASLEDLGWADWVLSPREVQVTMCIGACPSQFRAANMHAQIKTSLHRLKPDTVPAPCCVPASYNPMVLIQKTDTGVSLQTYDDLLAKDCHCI

T5: cynoGDF15-mFC (monkey (cyno); mouse, UniProt G7PWZ3 197-308)
T5 construct: also called monkey GDF15 (cynoGDF15)
T5 sequence (looked up): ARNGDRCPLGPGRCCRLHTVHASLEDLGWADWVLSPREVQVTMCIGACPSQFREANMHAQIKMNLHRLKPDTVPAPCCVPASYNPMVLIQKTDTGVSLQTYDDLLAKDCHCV

B1: A1 (murine anti-53E5) (antibody, V domains shown)
VH: QVQLKESGPGILQPSQTLSLTCSFSGFSLSTSGMGVGWIRQPSGKGLEWLAHILWDDVKRYNPALKSRLTISKDSSNSQIFLKIASVDTADTATYYCVQMAWDWFAYWGQGTLVTVSA
VL: DIVMTQAQKFMSTSVEDRVSVTCKASQNVDTNVAWYQQKPGQSPKALIYSASYRSSGVPDRFTGSGSGTDFTLTISNVQSEDLAEYFCQQYHSYPTFGGGTKLEIK
notes: Purified murine hybridoma antibody
B2: A2 (murine anti-53A8) (antibody, V domains shown)
VH: QVQLKESGPGILQPSQTLSLTCSFSGFSLSTSGMGVGWIRQPSGKGLEWLAHIRWDDVKRYNPALKSRLTISKDTSSSQIFLKIASVDTADTATYYCAQMAWDWFAYWGQGTLVTVSA
VL: DIVMTQAQKFMSTSVGDRVSVTCKASQNVDTDVAWYQQKPGQSPKALIYSASYRYSGVPDRFTGSGSGTDFTLTITNVQSEDLAEYFCHQYNSYPTFGGGTKLEIK
notes: Purified murine hybridoma antibody; also called murine antibody 53A8
B3: A3 (murine anti-34G9) (antibody, V domains shown)
VH: QVQLKESGPGILQPSQTLSLTCSFSGFSLNTAGMTVGWIRQPSGKGLEWLAHIWWNDDKYYNPALKSRLTISKDTSNNQIFLEIASVVTADTATYYCTRIATMNYAMDYWGQGTSVTVSS
VL: DIVMTQAPASLAVSLGQRATISCRASQSVSTSSFSYMHWYQQKPGQPPKLLIKYASNLESGVPARFSGSGSGTDFTLNIHPVEEEDTATYYCQHSWEIPYTFGGGTKLEIK
notes: as for B1
B4: A6 (murine anti-53D10) (antibody, V domains shown)
VH: QVTLKESGPGIVQPSQPFRLTCTFSGFSLSTSGIGITWIRQPSGKGLEWLATIWWDDDNRYNPSLKSRLTVSKDTSNNQAFLNIITVETADTAIYYCVQSAWDWFAYWGQGTLVTVSA
VL: DIVMTQSQKFMSTSVGDRVSVTCKASQNVGTNVAWYQQKSGQSPKALIYSASYRNSGVPDRFTGSGSGTDFTLTISNVESEDLAEYFCQQYNSHPVTFGGGTKLEIK
notes: as for B1
B5: Ponsegromab (antibody, V domains shown)
VH: QVQLVQSGAEVKKPGSSVKVSCKASGYTFSSYNIDWVRQAPGQGLEWMGGINPIFGTAFYNQKFQGRVTITADESTSTAYMELSSLRSEDTAVYYCAREAITTVGAMDHWGQGTLVTVSS
VL: EIVLTQSPATLSLSPGERATLSCRTSQSVHNYLAWYQQKPGQAPRLLIYDASTRADGIPARFSGSGSGTDFTLTISSLEPEDFAVYYCQQFWSWPWTFGQGTKVEIKR
B6: AV380-mIgG1 (antibody)
heavy: EVLLQQSGPELVKPGASVKIPCKASGYTFTDYNMDWVKQSHGKSLEWIGQINPNNGGIFFNQKFKGKATLTVDKSSNTAFMEVRSLTSEDTAVYYCAREAITTVGAMDYWGQGTSVTVSSAKTTPPSVYPLAPGSAAQTNSMVTLGCLVKGYFPEPVTVTWNSGSLSSGVHTFPAVLQSDLYTLSSSVTVPSSTWPSETVTCNVAHPASSTKVDKKIVPRDCGCKPCICTVPEVSSVFIFPPKPKDVLTITLTPKVTCVVVDISKDDPEVQFSWFVDDVEVHTAQTQPREEQFNSTFRSVSELPIMHQDWLNGKEFKCRVNSAAFPAPIEKTISKTKGRPKAPQVYTIPPPKEQMAKDKVSLTCMITDFFPEDITVEWQWNGQPAENYKNTQPIMDTDGSYFVYSKLNVQKSNWEAGNTFTCSVLHEGLHNHHTEKSLSHSPGK
light: DIQMTQSPASLSASVGETVTITCRTSENLHNYLAWYQQKQGKSPQLLVYDAKTLADGVPSRFSGSGSGTQYSLKINSLQPEDFGSYYCQHFWSSPYTFGGGTKLEIKRADAAPTVSIFPPSSEQLTSGGASVVCFLNNFYPKDINVKWKIDGSERQNGVLNSWTDQDSKDSTYSMSSTLTLTKDEYERHNSYTCEATHKTSTSPIVKSFNRNEC
notes: also called positive control antibody AV380-mIgG1
B7: A5 (murine anti-50G3) (antibody, V domains shown)
VH: QVTLKESGPGILKPSQTLSLTCSFSGFSLSTSGMGVGWIRQPSGKGLEWLAHIWWNDDKYYNPSLKSHLTISKDTSRNQVFLMITSVDTADTATYYCARGAYDFFDYWGQGTTLTVSS
VL: DIVMTQAQNFMSTSVGDRVSVTCKASQNVDTNVAWYQQKPGQSPKALIYSASYRYSGVPDRFTGSGSGTDFTLTISNVQSDDLADYFCQQYNTYPYTFGGGTKLEIK
notes: as for B1
B8: A4 (murine anti-2A2) (antibody, V domains shown)
VH: QVTLKESGPGILQPSQTLSLTCSFSGFSLTTSGMGVDWIRQSSGKGLEWLAHIYWDDDKRYNPSLKSRLTISKDTSSNQVFLKITSVDTADTATYYCARRAWDAMDYWGQGTSFTVSS
VL: DIVMTQAQKFMSTSVGDRVSVTCKARQNVGTNVAWYQQKPGQSPKALIYSASYRYSGVPDRFTGSGSGTDFTLTISNVQSEDLAEYFCQQYNSYPYTFGGGTKLEIK
notes: as for B1

Experiments:
[1] = molecular target: T1, GDF15-HIS (ACROBiosystems, CAT #: …); test: BLI (ForteBio Octet), antibody immobilised, GDF15 200-6.25 nM
[2] = molecular target: T2, fusion protein comprising the …; test: ELISA, monkey GDF15-hIgG1 Fc coated, HRP anti-mouse IgG
Description: (§1) The antibodies to be tested (purified antibodies from hybridoma, see Table 1), positive control antibody AV380-mIgG1 (its sequence is from Aveo Oncology; see SEQ ID NO. 1 and SEQ ID NO. 2 for its heavy chain and light chain variable regions, respectively; see SEQ ID NO. 3 and SEQ ID NO. 4 for its heavy chain and light chain constant regions, respectively) and blank control (PBS) were added to the wells. […] The wells were incubated at 37° C. for 1 hour, washed, and dried via tapping. Then the enzyme-labeled secondary antibody, horseradish peroxidase-labeled goat anti-mouse IgG (SIGMA, catalog number A9044-2 ml) was added to each well, at a dilution of 1:10000, 100 μl/well. The wells were incubated at 37° C. for 2 hours, washed, and dried via tapping. 100 μl of freshly prepared developing solution TMB was added to each well and incubated at 37° C. for 30 minutes.
(§2) The experiment was performed as detailed in Example 2, except that the fusion protein in Example 2 was replaced with a fusion protein comprising the extracellular region of monkey GDF15 protein (Genbank accession number EHH29815.1) and human IgG1-FC (Genbank accession number CAC20454.1). The results were shown in Table 2-1, Table 2-2 and FIGS. 2-1 and 2-2.

GDF15-mFC protein [3] = molecular target: T3, GDF15-mFC protein; test: blocking ELISA, GFRAL-hIgG1 Fc coated (competitor), GDF15-mFC 20 ng/well mixed with antibody
Description: (§3) A fusion protein comprising the extracellular region of GFRAL protein (Genbank accession number NM_207410.2) and human IgG1-FC (Genbank accession number CAC20454.1) was diluted to 1 g/ml with coating solution, followed by adding to ELISA plate at 50 μl/well and incubating at 4° C. overnight. The solution in the wells was discarded and the plate was washed 3 times with washing solution, each time for 3-5 minutes, and dried via tapping. 200 μl of blocking solution was added to each well followed by incubating at 4° C. overnight. The plate was washed 3 times with washing solution, and the coated plate may be stored at −20° C. or 4° C. for future use.
(§4) The antibodies to be tested, positive control antibody AV380-mIgG1 and blank control (PBS) were added to the wells. […] At the same time, GDF15-mFC protein (GDF15: Genbank accession number NM_004864.3; mFC: Genbank accession number AAH31470.1) was added at 20 ng/well and mixed with the antibodies to be tested. The wells were incubated at 37° C. for 1 hour, washed, and dried via tapping. Then the enzyme-labeled secondary antibody, horseradish peroxidase-labeled goat anti-mouse IgG (SIGMA, catalog number A9044-2 ml) was added to each well, at a dilution of 1:10000, 50-100 μl/well. The wells were incubated at 37° C. for 2 hours, washed, and dried via tapping. 100 μl of freshly prepared developing solution TMB was added to each well and incubated at 37° C. for 30 minutes. 2 mol/L H₂SO₄ was added to terminate the reaction, and the OD value was obtained on an enzyme-linked immunosorbent reader.

[4] = molecular target: T4, fusion protein comprising the …; test: ELISA, human GDF15-hIgG1 Fc coated, HRP anti-mouse IgG
Description: as §3, with “human GDF15” for “GFRAL”, “NM_004864.3)” for “NM_207410.2)”, “[…]” for “g/ml”, “by” for “via”, “and incubated” for “followed by incubating”
as §1
(§5) 2 mol/L H₂SO₄ was added to terminate the reaction, and the OD values were read on enzyme-linked immunosorbent reader. The results were shown in Table 1-1, Table 1-2 and FIGS. 1-1 and 1-2.

GDF15-mFC protein [5] = molecular target: T3, GDF15-mFC protein; test: blocking ELISA, GFRAL-hIgG1 Fc coated (competitor), GDF15-mFC 20 ng/well mixed with antibody; remark: listed apart in the source
Description: as §3, §4

[6] = molecular target: T4, fusion protein comprising the …; test: ELISA, human GDF15-hIgG1 Fc coated, HRP anti-mouse IgG; remark: listed apart in the source
Description: as §3, with “human GDF15” for “GFRAL”, “NM_004864.3)” for “NM_207410.2)”, “[…]” for “g/ml”, “by” for “via”, “and incubated” for “followed by incubating”
as §1, §5

[7] = molecular target: T2, fusion protein comprising the …; test: ELISA, monkey GDF15-hIgG1 Fc coated, HRP anti-mouse IgG; remark: listed apart in the source
Description: as §1, §2

cynoGDF15-mFC = molecular target: T5, cynoGDF15-mFC; test: ELISA, cynoGDF15-mFC coated
Description: The experiment was performed as detailed in Example 2, except that the coating protein was cynoGDF15-mFC (GDF15: Genbank accession number EHH29815.1; mFC: Genbank accession number AAH31470.1), and the antibodies to be tested (the humanized antibodies), negative control antibody (hIgG1), and positive control antibodies Ponsegromab and AV380-hIgG1 were added to each well of the coated plate.

Binder	Kd [1] [nM]	koff [1] [s⁻¹]	kon [1] [M⁻¹ s⁻¹]	EC50 [2] [µg/mL]	IC50 (GDF15-mFC protein [3]) [µg/mL]	EC50 [4] [µg/mL]	IC50 (GDF15-mFC protein [5]) [µg/mL]	EC50 [6] [µg/mL]	EC50 [7] [µg/mL]	EC50 (cynoGDF15-mFC) [µg/mL]	OD450.Max (cynoGDF15-mFC) [OD450]
B1	0.085	0.000194	2.29e+06	0.0454	0.186	0.0455					
B2	0.14	0.000318	2.28e+06	0.0677	0.205	0.0378					
B3	0.0895	7.2e-05	805000				0.0916	0.109	0.157		
B4	0.0972	0.000217	2.24e+06	0.0555	0.213	0.0602					
B5										0.0697	1.07
B6	0.097	0.000117	1.2e+06	0.0146	0.198	0.0313	0.14	0.0296	0.0258		
B7	0.162	0.000328	2.02e+06	0.077	0.232	0.0556					
B8	0.146	0.000214	1.47e+06				0.0898	0.046	0.0827		
